Assay results published in the DeepSol protein solubility set.

Assay: soluble on expression in E. coli; label from the status in PepcDB or PDB records

Q: For “MSLTARVIALDLDGTLLTPHKTLLPSSLDALSRAKEAGFQLIIVTGRHHVAIHPFYQALALETPAICCNGTYLYDYQAKTVLDADPMPVDKALQLIDLLDEHQIHGLMYVDDAMLYEHPTGHVVRTSRWAQTLPPEQRPTFAQVSSLAQAARDVNAVWKFALTDEDIPKLQRFGQHVEQALGLECEWSWHDQVDIARKGNSKGKRLTQWIEAQGGSMKNVIAFGDNYNDISMLEAAGTGVAMGNADEAVKARADVVIGDNTTDSIAKFIYTHLLEGHHHHHH”, which “soluble on expression in E. coli” value is on record?
A: The value was “soluble”.

Q: Which “soluble on expression in E. coli” value does the source give for “MGSDKIHHHHHHMTETWNFINTGSKDPYYNMAMDEALLNFVSRGEIDPVIRFYTWNPATLSIGYFQRLQKEIDIDKVKEKGFGLVRRQTGGRGVLHDKELTYSVIVPESHPNMPSTVTEAYRVISQGLLEGFKNLGFNTYFAVPKTPEERQKLKQPRSSVCFDAPSWYELVVEGRKIAGSAQTRQKGVILQHGSILQDIDIDELFDMFIYKNERLKLKMKEAFVEKAVAINDISDKHITISQMEEAFEKGFKKGLNIELKPLELTEAQLAEVEELTEKYRSDEWMFRK” here?
A: The value was “not soluble”.

Q: For “MAHHHHHHMSRSSLIFENNNDNNEKKKRKLFQDEYNYQSCYPLSYLNVYNNNNNNNHNSNNNSNNDNNRIYDYAYSQSYNYTYDQTYNDVYNKIYNDSKNIAQNVLNVQVNEEPYDKSLNNSHTTYPFSNIINSNQLNSNILNNNEMIDMRNFYENGNFVNPMIENKDQNQFNEPNKNNLNNTMANVNNINNINNIQFDKSLLINCIDVLLNFMNYNNLKDTITEETLHENLINLRFYILRLNGGKVSQKKITEYFHKM”, which “soluble on expression in E. coli” value is on record?
A: Its value is “not soluble”.

Q: For “MGSDKIHHHHHHMENFVFHNPTKIVFGRGTIPKIGEEIKNAGIRKVLFLYGGGSIKKNGVYDQVVDSLKKHGIEWVEVSGVKPNPVLSKVHEAVEVAKKEKVEAVLGVGGGSVVDSAKAVAAGALYEGDIWDAFIGKYQIEKALPIFDVLTISATGTEMNGNAVITNEKTKEKYGVSSKALYPKVSIIDPSVQFTLPKEQTVYGAVDAISHILEYYFDGSSPEISNEIAEGTIRTIMKMTERLIEKPDDYEARANLAWSATIALNGTMAVGRRGGEWACHRIEHSLSALYDIAHGAGLAIVFPAWMKYVYRKNPAQFERFAKKIFGFEGEGEELILKGIEAFKNWLKKVGAPVSLKDAGIPEEDIDKIVDNVMLLVEKNLKPKGASLGRIMVLEREDVREILKLAAK”, which “soluble on expression in E. coli” value is on record?
A: Its value is “soluble”.

Q: For “MPKVAILIYSVDDIIATLAENEKKGIEIAGGEAEIFQVPDVSYKTEYATEEGKEAAKVAKTNADFSYKILTRETLVEYDYYLFGIPTKFGNFPAEWKSFWDSNTGGLWAKGSLHGKIAGLFVSGAISGKGDTEMCIMNAMSTLVHHGVIYVPLGYKNAYKELTDVEDVNGSCAWGAGCVSGIDGGRPPSLSELRVHQLQGKAFYDRIKDL”, which “soluble on expression in E. coli” value is on record?
A: Its value is “not soluble”.

Q: With “MGSDKIHHHHHHMGVQSAVRVHRAISEIGQDAWDACAASTGDPFVSYDFLSILEESGCVAARTGWAPQHLTVLDEADQVAGVMPLYLKSHSQGEYVFDHSWADAYERAGGRYYPKLQCSSPFSPVTGSRLIVRPDIDAAEGRSALMGGALTLCERMGASSLHVTFPVEDQWRWMGERGMLLRQDQQYHWENRGYETFDDFLGALSANRRKTIRRERRDAQEGLEIVALTGADLTEDHWDAFFAFYMDTGGRKWGRPYLNRPFFSLLGQRMADKVLLILARRPGGPFIAGALNLLGRDCLYGRHWGCVEDAPFLHFELCYYQAIEHAIRLGLPRVEAGAQGQHKIARGYLPSAVYSAHWIADPMLREPVARYLERERAAVESDMEMLTEEYSPFREER” as the sequence, how does the “soluble on expression in E. coli” value read?
A: The value was “not soluble”.

Q: With “MEFIPPKRMLELIKHYSTTFKNWYSVMLGIYLHRERIKCTLRNGQTLYLTPNEAVLLAGLRIIELDCNTVKFSFNGREITLRGWRLSDPGDSFSDYWRINVKGKRVLDIGAGVGDSSIYFSTMGAKEVVAVEIDKKKIELMRENLRTNGINNVIVVDKGVGTVDNENFISWERLIKDYGPFDDAKIDCDGCERLISPFIKEIPELLIEWDSDYKDVVKNLSKNGYKIRVEHTLKNLGFIYAKRE” as the sequence, how does the “soluble on expression in E. coli” value read?
A: The value was “soluble”.

Q: With “MSLGAMCFYHYWFLGKQLLEKPAEILLENKEINMPFLFSWANEPWTRAWDGSHRNVLMPQSYGTEADWEKHFNYLKPFFEDERYLKHDGKPIFIIYRTANFALCNEWISCWRELSKNTSFKDIHFVSSYTSFENDPRKLDFDAHLYFEPMCTVGHNLGYFNKKIKKINARLKRVINPKVWTTYVENTLQYDYLWEKILKKKINKTQYPGAFVDWDNSARKKSRALVIHGGSPKKFGLYLDKLYKRSIENNCPFLFINAWNEWAEGTYLEPDEKNKYSYLEELKKVIEKYEVEGHHHHHH” as the sequence, how does the “soluble on expression in E. coli” value read?
A: Its value is “not soluble”.

Q: For “MTMTLVNKNRKSRDENAMAKYNEKELADTSKFLSFVLRHKPEAIGIVLDREGWADINKLILCAQKAGKRLTRALLDTVVATSDKKRFSYSSDGRCIRAVQGHSTSQVAISFAEKTPPQFLYHGTASRFLDEIKKQGLIAGDRHYVHLSADEATARKVGARHGSPVVLTVKAQEMAKRGIPFWQAENGVWLTSTVAVEFLEWSFMPTGVQKQLEHHHHHH”, which “soluble on expression in E. coli” value is on record?
A: The value was “soluble”.

Q: With “SNAWIVPKNSVLFAMYGSIGETAINKIEVATNQAILGIIPKDNILESEFLYYILAKNKNYYSKLGMQTTQKNLNAQIVKSFKIPLPPLEEQKQIAKILTKI” as the sequence, how does the “soluble on expression in E. coli” value read?
A: Its value is “not soluble”.

Q: With “MIDKVRAFIHRHQLLSEGAAVIVGVSGGPDSLALLHVFLSLRDEWKLQVIAAHVDHMFRGRESEEEMEFVKRFCVERRILCETAQIDVPAFQRSAGLGAQEAARICRYRFFAELMEKHQAGYVAVGHHGDDQVETILMRLVRGSTSKGYAGIPVKRPFHGGYLIRPFLAVSRAEIEAYCRQMGLSPRCDPSNEKDDYTRNRFRHHIVPLLRQENPRLHERFQQYSEMMAEDEQFLEELAADALNKVMEKQHRDAALSIGPFLELPRPLQRRVLQLLLLRLYGGVPPTLTSVHIGHILMLCERGRPSGMIDLPKGLKVIRSYDRCLFTFDAESGEKGYWFELPVPALLPLPNGYAIISEFGEHYPRKQAGNDWFVVDPASVSLPLRVRTRRRGDRMVLKGTGGTKKLKEIFIEAKIPRMERDRWPIVEDADGRILWVPGLKKSAFEAQNRGQARYILLQYQAMNS” as the sequence, how does the “soluble on expression in E. coli” value read?
A: The value was “soluble”.

Q: Which “soluble on expression in E. coli” value does the source give for “MGSDKIHHHHHHMFLLPSTITRNVIFISHATPEDNDFTIWLASRLQAEGFEVWIDKQALVGGEKFWQEIDQVIRHKAVKFLLVYSENICYQKQRGILKNGVAKEISMAEGIATTNGLKDFMILLNVDGSEYNLFIGADTLNQVPFYENWAGGYSQLRKKFKKEGLEPTGSPVGDFSKWYEDEYVIHHGIENLHEIYYDCWWPIPELPESFFVYIFPNNVVASQVHQRSKYPTGKASNILASFYDTSEFEVEIDGQLERIPFTAKHEIKVSDVIARTVRLGFPGTRDVENYFRSLLQRTFHLIMKERHLHWYEMANMKQAYFFSAKSHPKIKFEYPHRATKAGKSKVIFGKHLSSFWHYALSAKPIITPQLAFGLKSHIVFTTDGVKLWDDKAKMHTARRRKGRLMFNEEWRDLLFAFLHALCQGGTTVNIMLNPTFELALKPWTNTYHSDFGYIEPKGQDRHDILAAEYEYQDREDIDPDEVANV” here?
A: The value was “not soluble”.

Q: Which “soluble on expression in E. coli” value does the source give for “AMRQCAIYGKGGIGKSTTTQNLVAALAEMGKKVMIVGCDPKADSTRLILHSKAQNTIMEMAAEAGTVEDLELEDVLKAGYGGVKCVESGGPEPGVGCAGRGVITAINFLEEEGAYEDDLDFVFYDVLGDVVCGGFAMPIRENKAQEIYIVCSGEMMAMYAANNISKGIVKYANSGSVRLGGLICNSRNTDREDELIIALANKLGTQMIHFVPRDNVVQRAEIRRMTVIEYDPKAKQADEYRALARKVVDNKLLVIPNPITMDELEELLMEFGIMEVEDESIVGKTAEEV” here?
A: The value was “soluble”.

Q: For “ADRNLRDLLAPWVPDAPSRALREMTLDSRVAAAGDLFVAVVGHQADGRRYIPQAIAQGVAAIIAEAKDEATDGEIREMHGVPVIYLSQLNERLSALAGRFYHEPSDNLRLVGVTGTNGKTTTTQLLAQWSQLLGEISAVMGTVGNGLLGKVIPTENTTGSAVDVQHELAGLVDQGATFCAMEVSSHGLVQHRVAALKFAASVFTNLSRDHLDYHGDMEHYEAAKWLLYSEHHCGQAIINADDEVGRRWLAKLPDAVAVSMEDHINPNCHGRWLKATEVNYHDSGATIRFSSSWGDGEIESHLMGAFNVSNLLLALATLLALGYPLADLLKTAARLQPVCGRMEVFTAPGKPTVVVDYAHTPDALEKALQAARLHCAGKLWCVFGCGGDRDKGKRPLMGAIAEEFADVAVVTDDNPRTEEPRAIINDILAGMLDAGHAKVMEGRAEAVTCAVMQAKENDVVLVAGKGHEDYQIVGNQRLDYSDRVTVARLLGVIARSHH”, which “soluble on expression in E. coli” value is on record?
A: Its value is “soluble”.

Q: With “MSLNASEAVYKAILDSGVDFVTSVPCANLKTVLNYLNDNKDIQHIPVTREEEGIGVCAGAYLGGRKTALLMQNSGLGNSINAIGSLVKVYKIPILIIISHRGDLKEKISAQIPMGQWTKKLLETVEIPYFSPKTPDEAYKLIKDASELSINMEYPVAILLDALYWEHDKEGHHHHHH” as the sequence, how does the “soluble on expression in E. coli” value read?
A: The value was “soluble”.

Q: With “SNTTEILTSVDVLGTHSQTGTQQSNMYTSTQKTELEIDNKDSVTECSKDMKEDGLSFVDIVLSKAASALDEKEKQLAVANEIIRSLSDEVMRNEIRITSLQGDLTFTKKCLENARSQISEKDAKINKLMEKDFQVNKEIKPY” as the sequence, how does the “soluble on expression in E. coli” value read?
A: The value was “soluble”.

Q: With “MTIPTSYLNHTDAEAARKARATYRDGLVAPTSGIAPGFTQANMIVLPRDWAFDFLLYAQRNPKPCPVLDVSDPGSPTTLLAPGADLRTDLPLYRIWRDGKLAEETADATSAWAERDDLVAFLIGCSFTFETPMVEAGIEIRHMTDKSNVPMYLTNRPCRPAGRLKGNMVVSMRPIPASRVADAATISGRFPAVHGAPVHVGAPEQIGISDLSKPDFGDAVRIEPGEVPVFWACGVTPQAAVMASGVPFAITHAPGHMFITDIPDTAYHALEHHHHHH” as the sequence, how does the “soluble on expression in E. coli” value read?
A: The value was “soluble”.

Q: For “ALQAAADIDTVVFDLNGTLTQGKMVVKSLHITDKKYLRPIALLESQSDHPVAKIIKSYMEQQDTASTEPLEITSIDKSHHSGMKGIINGEVFIIGNKDMLAANGITSIDKPYDNPEKGSVYIVRGTTVIGQIALIDPLREDAIATVKQLKRLGKSVHICTGADQATAEKYAALLGIPKDNICANTVGAVTKKGEVSKTSYIQQLKQKGFKVAMVGDAANDATAIAYSDIGIAVKSSIGDSITEQHAGIVVQQGLLFPIATAFDVAQKTKQNIFQNLFVSLSYNSIIT”, which “soluble on expression in E. coli” value is on record?
A: The value was “not soluble”.

Q: For “QVQLLESGAVLARPGTSVKISCKASGFNIKDYYMHWVKQRPGQGLEWIGGNDPANGHSMYDPKFQGRVTITADTSTSTVFMELSSLRSEDTAVYYCARDSGYAMDYWGQGTLVTVSSASTKGPSVFPLAPCSRSTSESTAALGCLVKDYFPEPVTVSWNSGALTSGVHTFPAVLQSSGLYSLSSVVTVPSSSLGTKTYTCNVDHKPSNTKVDKRVES”, which “soluble on expression in E. coli” value is on record?
A: The value was “soluble”.

Q: With “MGSDKIHHHHHHMTQMEMARKGVVSDEMKKVAEYEGVDVEIVRQKLAEGRAVLPKNKLHRIERPMIVGEGFSVKVNANIGTSQGFSSLEEEKEKARVAIEYGADSLMVLSTWGDLREIRRAIVEMSPVPVGSVPIYDSAVRSYQMKKNVVDFSEKDFFDMVIAHAEDGIDFMTIHVGVTRRVLDRIKSSRRVLKIVSRGGAIIAGWMIKNNKENPFYEHFDELLDIAKDYDITLSLGDGMRPGAVVDASDAQQFEELFVMGELVERAREKGVQVMLEGPGHVPLNEVEMNVRLMKKIGKGAPIFLLGPLPTDRAMGYDHIACAIGGALAGYYGADFLCYVTPSEHISLPDVEDVREGVIASKIAAIVADVARGNKKAWELEKKMALARKNFDWETMFSLSLGKDVAKKKYEERPYPDKGCSMCGPFCAIKIAEEFS” as the sequence, how does the “soluble on expression in E. coli” value read?
A: The value was “not soluble”.

Q: For “EIEKGGCGDPGIPAYGKRTGSSFLHGDTLTFECPAAFELVGERVITCQQNNQWSGNKPSC”, which “soluble on expression in E. coli” value is on record?
A: The value was “soluble”.
